The supplement of paper PMC11865577

Key:
Test in all cases: pull-down binding Z-score (relative to library population); higher = stronger binding
Details in all cases: RNA library: Library-2
[1] = tested on: TO-N3-2 (biotin conjugate)
How it was run: (§1)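 Heat-folded RNA library (1 μg, Cy5 or Cy3 end label, phosphate/NaCl/KCl buffer) was captured for 60 min at 25 °C on streptavidin beads displaying 100 pmol of biotin-conjugated small molecule, then washed three times. The bound fraction, eluted in hot SDS, was hybridised to a DNA barcode microarray at 55.5 °C for 20 h. Z-scores for binding were taken against the library mean and standard deviation after beads-only subtraction and trimmed averaging of replicate barcoded probes.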

[2] = tested on: TO-3-N3 (biotin conjugate)
How it was run: as §1

[3] = tested on: TO-N3 (biotin conjugate)
How it was run: as §1

[4] = tested on: TO-3-N3-2 (biotin conjugate)
How it was run: as §1

Row | Sequence | pull-down binding Z-score [1] | pull-down binding Z-score [2] | pull-down binding Z-score [3] | pull-down binding Z-score [4]
1 | GAAUGGAGAACGCAGUGGGGCGCGAUCAAAACAACGUCGGCCCCAAGGUUUACCCAAUAAUACUGCGUCUUGGUUC | 0.849 | 0.148 | 0.452 | 0.382
2 | CUUUACCAACCACCACAAACCUCUAUCACCUCAGCUGUUUUGCAGAGUGGUUUUAGAAAAAUGGCAUUCCCAUCUGGUAAAG | -0.0806 | -0.0485 | -0.0807 | 0.13
3 | UGGGGCGCGAUCAAAACAACGUCGGCCCCA | -0.439 | 0.2 | 0.0437 | 0.157
4 | ACCUUGAAGGAAAACAGGGU | -0.135 | 0.525 | 0.58 | 0.457
5 | GGAGUAAGUCUGAUACUUACCUG [U1snRNP5ss-1] | 0.773 | -0.0269 | 0.599 | -0.152
6 | GUUAAUGCCUAUAUUAACCUUGACCAGGGCUUUAAC | -0.216 | 0.238 | -0.0902 | -0.198
7 | GUUAUGUUGAUACACCUAAU [DMSMaPseq_invitro_SARS-CoV-2_Motif_328] | -0.329 | -0.598 | -0.585 | -0.132
8 | UAGUACAUUUAUUAGUGAUGAAGUUGCGAGAGACUUGUCACUACAGUUUAAAAGACCAAUAAAUCCUACUG [SHAPE_invivo_SARS-CoV-2_Multi_21_ComplexLevel_1] | 0.172 | 0.561 | 0.716 | 0.312
9 | GGCUCAUAGACUUCCUUAAGGAUGUAAUGGAGUC [IAV_invivo_PB1_2_Motif_10+IAV_invivo_PB1_2_Motif_10] | 1.62 | 0.164 | 0.795 | -0.15
10 | GCUUCAAGAGAGC | -0.212 | -0.0727 | -0.0808 | -0.171
11 | CAGACAACACAUUUGUGUCUG | -1.8 | -1.07 | -1.45 | -0.67
12 | UUACAGAUCUUUACCAGGAGUUUUCUGUGGUGUAGAUGCUGUAA [SHAPE_invivo_SARS-CoV-2_Motif_187] | -1 | -0.96 | -1.21 | -0.414
13 | GCUUGAAGUGGAGC [IAV_invivo_NS1_NEP_8_Motif_14+IAV_invivo_NS1_NEP_8_Motif_14] | 0.386 | -0.454 | -0.23 | -0.23
14 | AUCUUCUGCAGGCUGCUUACGGUUUCGUCCGUGUUGCAGCCGAUCAUCAGCACAUCUAGGUUUUGUCCGGGUGUGACCGAAAGGUAAGAU [DMSMaPseq_invitro_SARS-CoV-2_Multi_2_ComplexLevel_1] | -0.919 | -0.599 | -1.06 | -0.451
15 | GGAGGAGGAGGAGGAGGA [G4_r(GGA)6] | -1.68 | 4.17 | 2.99 | 7.36
16 | GUGGUAGUUAUACUAAUGACAAAGCUUGCCCAUUGAUUGCUGC [DMSMaPseq_invitro_SARS-CoV-2_Motif_161] | 0.208 | 0.409 | 0.498 | 0.207
17 | ACUAAAAUAAAACCUCAUAAUUCACAUGAAGGUAAAACAUUUUAUGUUUUACCUAAUGAUGACACUCUACGUGUUGAGGCUUUUGAGU [DMSMaPseq_invitro_SARS-CoV-2_Multi_18_ComplexLevel_1] | -1.02 | -0.89 | -1.12 | -0.146
18 | GGGGCGUUUAUGCAACCC [IAV_invivo_PB1_2_Motif_33+IAV_invivo_PB1_2_Motif_33] | -0.334 | -0.754 | -0.497 | -0.277
19 | GCCAUUGCCGGU [IAV_invivo_HA_4_Motif_15+IAV_invivo_HA_4_Motif_15] | -0.0811 | -0.443 | -0.593 | -0.49
20 | AACAGCAGACAACCCUUAAGGGUGUAGAAGCUGUU | -0.918 | -0.872 | -1.19 | -0.692
21 | UACUUUACUCAGAGUA [SHAPE_invitro_SARS-CoV-2_Motif_368] | -1.64 | -1.06 | -1.58 | -0.589
22 | AACUUCUUAAGAGUGCUUAUGAAAAUUUUAAUCAGCACGAAGUU | -0.771 | 0.425 | -0.246 | 0.972
23 | ACACGGUGUUUAAACCGUGU | -1.15 | 0.59 | 0.0341 | -0.00656
24 | CUCCAGGAGGGG [IAV_invivo_PB2_1_Motif_10+IAV_invivo_PB2_1_Motif_10] | -0.309 | -0.481 | -0.668 | -0.312
25 | CUGUUUGGAUGACAG | -1.01 | -0.461 | -0.871 | -0.753
26 | CUUCCGAGUCAUAGGAAACUAUGACAUACAGAUCAACAGGGGCUCGCUUGAGCCCCCCAGCCAGUCGGAGG [mMTR1] | -0.704 | -0.97 | -1.09 | -0.458

Row | Sequence | pull-down binding Z-score [1] | pull-down binding Z-score [2] | pull-down binding Z-score [3] | pull-down binding Z-score [4]
27 | CCACGCCAGGUAGUGG | -0.539 | 1.16 | 0.912 | 0.0319
28 | CCCAAGUCAUGAAGGAGAGGG [IAV_invivo_PA_3_Motif_13+IAV_invivo_PA_3_Motif_13] | 0.652 | 0.689 | 0.816 | 0.497
29 | GACCCUAAGACUAAAAAUGUUACAAAAGAAAAUGACUCUAAAGAGGGUUUUUUCACUUACAUUUGUGGGUU | -0.519 | -0.131 | -0.227 | 0.101
30 | UCCCAGUUUUGGGG [IAV_invivo_PB1_2_Motif_27+IAV_invivo_PB1_2_Motif_27] | -1.6 | -0.953 | -1.36 | -0.902
31 | CCUCGUACAAAAUUUUCAAGAUCGAAAAGGGG [IAV_invivo_NA_6_Motif_10+IAV_invivo_NA_6_Motif_10] | -0.605 | -0.278 | -0.362 | 0.159
32 | UGAGUACUGUAGGCACGGCACUUGUGAAAGAUCAGAAGCUGGUGUUUGUGUAUCUACUAGUGGUAGAUGGGUACUUA [DMSMaPseq_invitro_SARS-CoV-2_Multi_29_ComplexLevel_1] | 0.628 | -0.254 | 0.0497 | -0.0976
33 | CCCAAUCGUGGCGUGUCGGCCUGCUUCGGCAGGCACUGGCGCCG [Pepper530] | 1.13 | 0.37 | 0.516 | 0.0777
34 | AUUAUGAGGACUUUUAAAGUUUCCAUUUGGAAUCUUGAUUACAUCAUAAACCUCAUAAU | -1.25 | -1.1 | -1.39 | -0.377
35 | AGUUUACGCCCUGACACACGUUAUGUGCUCAUGGAUGGCU | -0.321 | -0.721 | -0.719 | -0.516
36 | AUGUCAUAUUGGAGUUGGACUGCAGGGCUUCCUUUACACAAUAAAUAUUGUAUGAAGUGCUGAUGUAACCUUUACUGCAGCAUGACAU [hsa-mir-3976] | 0.0127 | 0.131 | 0.227 | -0.081
37 | UCUGGAGUAAAAGACUGUGUUGUAUUACACAGUUACUUCACUUCAGA | -0.98 | -0.0665 | -0.481 | -0.0465
38 | GCGCUGCCAGAAACUGGCCGCGC [mismatch-UC] | -0.896 | -0.648 | -0.905 | -0.66
39 | ACAAGAGGGUGUGGUUGAUUAUGGUGCUAGAUUUUACUUUUACACCAGUAAAACAACUGUAGCGUCACUUAUCAACACACUUAACGAUCUAAAUGAAACUCUUGU | 0.277 | 0.233 | 0.447 | 0.984
40 | CUUCUUGAAAUACUCCAAAAAGAGAAAGUCAACAUCAAUAUUGUUGGUGACUUUAAACUUAAUGAAG | -0.596 | 0.115 | -0.0282 | -0.0464
41 | GCGCUGCCAGAAACUGGCGGCGC [mismatch-UG] | -0.856 | 0.983 | 0.624 | -0.0108
42 | GGAGGUUGCUAGUCAGGCUAGACAAAUGGUGCAAGCGAUGAGAACCAUUGGAACUCAUCCUAGCUCCAGUGCUGGUCUGAAAAAUGAUCUUC [IAV_invivo_M1_M2_7_Motif_15+IAV_invivo_M1_M2_7_Motif_15] | 0.839 | -0.55 | -0.195 | -0.816
43 | GGAUUGUACAGAAAGUGUGUUAAAUCC [SHAPE_invivo_SARS-CoV-2_Motif_47] | -0.185 | -0.22 | -0.222 | 0.139
44 | GUAAAUUUACUUAC [DMSMaPseq_invitro_SARS-CoV-2_Motif_170] | -0.635 | 0.655 | 0.563 | -0.105
45 | CAACUUACAAAUUAAAUGUUG | -1.06 | -0.448 | -0.698 | -0.152
46 | CAUAAACGAACUUAUGGAUUUGUUUAUG | -1.25 | -0.474 | -0.904 | -0.393
47 | GUUGUCGCUUCCAAGAAAAGGACGAAGAUGACAAU [SHAPE_invitro_SARS-CoV-2_Motif_248] | 0.292 | 0.276 | 0.141 | 0.224
48 | AAAGUGCUUUUGUUAAUUUAAAACAAUUACCAUUUU [SHAPE_invivo_SARS-CoV-2_Motif_363] | -1.63 | -0.825 | -1.18 | -0.408
49 | GUUCUUCUUCGUAAGAAC | -1.19 | -0.358 | -0.728 | -0.206
50 | GUACUUGGUAGUUUAGCUGCCACAGUAC | -0.818 | -0.525 | -0.688 | -0.291
51 | GAUGAGUACGAACUUAUGUACUCAUU | -0.762 | -0.907 | -1.25 | -0.473
